According to the RNAGym collection of RNA variant scans (doi:10.1073/pnas.2313332121):
This sample holds only a part of the variants without activity.

B1: TPR 5TU (parent)
chain: GGAUCUUCUCGAUCUAACAAAAAAGACAAAUCUGCCACAAAGCUUGAGAGCAUCUUCGGAUGCAGAGGCGGCAGCCUUCGGUGGCGCGAUAGCGCCAACGUUCUCAACUAUGACACGCAAAACGCGUGCUCCGUUGAAUGGAGUUUAUCAUG

Variants of: B1
Assay: polymerase ribozyme fitness, log enrichment relative to wild type (log ratio); higher = more active; in vitro selection for triplet polymerase activity
How it was run: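 To select mutant libraries of each subunit of a heterodimeric triplet polymerase ribozyme, built by PCR and transcribed, each was annealed with a biotinylated primer, partner subunit and triplets, then incubated frozen at −7 °C. Extended constructs were gel-excised, captured on streptavidin beads and amplified by RT-PCR, in one round carried out in triplicate. Illumina sequencing of input and output libraries kept genotypes with ≥10 input reads and ≥1 read per output. Fitness is the base-2 logarithm of genotype enrichment relative to wild-type enrichment, from inverse-variance-weighted replicate averages.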

Variant | polymerase ribozyme fitness (log ratio)
GGAUCUUCUCGAUCUAACAAAAAAGACAAAUCUGCCAAAAAGCUUGAGAGCAACUUCGGAUGUAGAGGCGGCAGCCUUCAGUGGCGCGAUAGCGACAACGUUCUCAACUAUGACACGCAAAACGCGUGCUCCGUUGAAUGGAGUUUAUCAUG [C38A U53A C63U G80A C95A] | ≤ -4.2
GGAUCUUCUCGAUCUAACAAAAAAGACAAAUCUGCCAAAAAGCUUGAGAGCAUCUUCGGAUGCAGAGGCGGCAGCCUUCGGUGACGCGAUAGCGCCAACGUUCUCAACUAUGACACGCAAAACGCGUGCUCCGUUGAAUGGAGUUUAGCAUG [C38A G84A U148G] | ≤ -4.2
GGAUCUUCUCGAUCUAACAAAAAAGACAAAUCUGCCAAAAAGCUUGAGAGCAUCUUCGGAUGCAGAGGCGGCAGCCUUCGGUGGAGCGAUAGCGCCAACGUUCUCAACUAUGACACGCAAAACGCGUGCUCCGUUGAAUGGAGCUUAUCAUG [C38A C85A U144C] | -0.839
GGAUCUUCUCGAUCUAACAAAAAAGACAAAUCUGCCAAAAAGCUUGAGAGCAUCUUCGGAUGCAGAGGCGGCAGCCUUCGGUGGCGAGAUAGCGCCAACGUUCUCAACUAUGACACGCAAAACGCGUGCUCCGUUGAAUGGAGUUUAUCAUG [C38A C87A] | ≤ -4.2
GGAUCUUCUCGAUCUAACAAAAAAGACAAAUCUGCCAAAAAGCUUGAGAGCAUCUUCGGAUGCAGAGGCGGCAGCCUUCGGUGGGUCGAUAGCGCCAACGUUCUCAACUAUGACACGCAAAACGCGUGCUCCGUUGAAUGGAGUUUAUCAUG [C38A C85G G86U] | ≤ -4.2
GGAUCUUCUCGAUCUAACAAAAAAGACAAAUCUGCCAAAAAGCUUGAGAGCAUCUUCGGAUGCAGAGGCGGCAGCCUUCGGUGGCGCGAUAGAGCCAACGUUCUCAACUAUGACACGCAAAACGCGUGCUCCGUUGAAUGGAGUUUAUCAUG [C38A C93A] | -2.59
GGAUCUUCUCGAUCUAACAAAAAAGACAAAUCUGCCAAAAAGCUUGAGAGCAUAUUCGGAUGUAGAGGCUGCAGUCUUCGGUGGCGAGAUAGCGCCAACGUUCUCAACUAUGACACGCAAAACGCGUGCUCCGUUGAAUGGAGUUUAUCAUG [C38A C54A C63U G70U C75U C87A] | ≤ -4.2
GGAUCUUCUCGAUCUAACAAAAAAGACAAAUCUGCCAAAAAGCUUGAGAGCAUCUUGGGAUGCAGAGGCGGCAGCCGUUGGUGGCGCGAUGGCGCCAACGUUCUCAACUAUGACACGCAAAACGCGUGCUCCGUUGAAUGGAGUUUAUCAUG [C38A C57G U77G C79U A91G] | ≤ -4.2
GGAUCUUCUCGAUCUAACAAAAAAGACAAAUCUGCCAAAAAGCUUGAGAGCAUCUUCGGAUGCAGAGGCGGCAGCCUUCGGUGGCGCGAUAGCGCUAAUGUUCUCAACUAUGACACGCAAAACGCGUGCUCCGUUGAAUGGAGUUUAUCAUG [C38A C96U C99U] | -0.43
GGAUCUUCUCGAUCUAACAAAAAAGACAAAUCUGCCAAAAAGCUUGAGAGCAUCUUCGGAUGCAGAGGCGGCAGCCUUCGGUGGCCCGAUAGCGCCAACGUUCUCAACUAUGACACGCAAAACGCGUGCUCCGUUGAAUGGAGUUUAUCAUG [C38A G86C] | -3.27
GGAUCUUCUCGAUCUAACAAAAAAGACAAAUCUGCCAAAAAGCUUGAGAGCAUCUUCCGAUGCAGAGGCGGCAGCCUUCGGUGGCGUGAUAGCGCCAACGUUCUCAACUAUGACACGCAAAACGCGUGCUCCGUUGAAUGGAGUUUAUCAUG [C38A G58C C87U] | -0.072
GGAUCUUCUCGAUCUAACAAAAAAGACAAAUCUGCCAAAAAGCUUGAGAGCAUCUUCGGAUGAAGAGGCGGCAGCCUUCGGUGGCGCGAUAGCGUCAACGUUCUCGACUAUGACACGCAAAACGCGUGCUCCGUUGAAUGGAGUUUAUCAUG [C38A C63A C95U A106G] | -1.81
GGAUCUUCUCGAUCUAACAAAAAAGACAAAUCUGCCAAAAAGCUUGAGAGCAUCUUCGGAUGCAGAGGCGGCAGCCUUCGGUGGCGCGAUAGGGCUAACGUUCUCAACUAUGACGCACAAAACGCGUGCUCCGUUGAAUGGAGUUUAUCAUG [C38A C93G C96U A115G G117A] | ≤ -4.2
GGAUCUUCUCGAUCUAACAAAAAAGACAAAUCUGCCAAAAAGCUUGAGAGCAUCUUCGGAUGCAGAGGCGGCAGCCUUCGGUGGCGCGAUAGCGACAACGUUCUCAACUAUGACACGAAAAACGCGUGCUCCGUUGAAUGGAGUUUAUCAUG [C38A C95A C118A] | -1.55
GGAUCUUCUCGAUCUAACAAAAAAGACAAAUCUGCCAAAAAGCUUGAGAGCAUCUUCGGAUGGAGAGGCGGCAGCCUUCGGUGGCGCGAUAGCGCCAACGUUCUCAACUAUGACACGCAAAACGCGUGCUCCGUUGAAUGGAGUUUAUCGUG [C38A C63G A150G] | -3
GGAUCUUCUCGAUCUAACAAAAAAGACAAAUCUGCCAAAAAGCUUGAGAGCAUCAUCGGAUGCAGAGGCGGCAGCCUUCGGUGGAGCGAUAGCGCCAACGUUCUCAACUAUGACACGCAAAACGCGUGCUCCGUUGAAUGGAGUUUAUCAUG [C38A U55A C85A] | -2.66
GGAUCUUCUCGAUCUAACAAAAAAGACAAAUCUGCCAAAAAGCUUGAGAGCAUCUUCGGAUGCAGAGGCGGCAGCCUUCGGUGGCGUGAUAGCGCCAGCGUUCUCCACUAUGACACGCAAAACGAGUGCUCCGUAGAAUGGAGUUUAUAAUG [C38A C87U A98G A106C C125A U135A C149A] | ≤ -4.2
GGAUCUUCUCGAUCUAACAAAAAAGACAAAUCUGCCAAAAAGCUUGAGAGCAUCAUCGGAUGCAGAGGCGGCAGCCUUCGGUGGCGCGAUAGCUCCAAGGUUCUCAACUAUGACACGCAAAACGCGUGCUCCGUUGAAUGGAGUUUAUCAUG [C38A U55A G94U C99G] | -3.88
GGAUCUUCUCGAUCUAACAAAAAAGACAAAUCUGCCAAAAAGCUUGAGAGCAUCAUCGGAUGCAGAGGCGGCAGCCUUCGGUGGCGCGAUAGCGCCAACGUUCUCCACUAUGACACACAAAACGCGUGCUCCGUUGAAUGGAGUUAAUCAUG [C38A U55A A106C G117A U146A] | -1.67
